Source: PMC8062265

Target: Recombinant 1-158 a.a. domain of TMCC3 protein (human) (UniProt Q9ULS5)
Test: Luminex immunosandwich assay; cell-free; protein coupled onto Luminex beads, incubated with various concentrations of recombinant AKT, washed, detected with fluorescence labeled anti-AKT antibody (MFI, n = 4)

Chain of UniProt Q9ULS5 (Q9ULS5 1-158): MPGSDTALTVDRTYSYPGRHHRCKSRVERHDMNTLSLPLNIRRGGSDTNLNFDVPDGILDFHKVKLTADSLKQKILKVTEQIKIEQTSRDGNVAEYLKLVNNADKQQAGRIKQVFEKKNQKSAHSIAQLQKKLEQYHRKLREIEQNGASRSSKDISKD

Kd: 1.67 nM
Substance: recombinant AKT (from UniProt P31749 1-480) (natural protein)
